{"source": "the DeepSol protein solubility set", "data": [{"assay": "soluble on expression in E. coli; label from the status in PepcDB or PDB records", "values": [{"sequence": "MNQIDTGLVKRLIREQFPEWAHLEVKPVKFSGHDNRTFQLGDKMSVRLPSDAAYTPQVEKENKWLPILSKELSLPISTPIAKGNPSEAYPWPWSINKWIEGETVTKQNVRDLSEFAAHLGSFLVELQSIDASKGPIAGAHNFYRGGLISVYDEEARDAIENNKDVFDETVLKHLWDLALQSTWRRKPVWIHGDVAPGNLLVKDGKLCAVIDFGILGVGDPACDAAMSWTFFDKSSRKIFKEVLQIDEETWNRARGWALWKALITYDANKISNKIVAEESYRVIQVIVNDYGR", "soluble on expression in E. coli": "not soluble"}, {"sequence": "GPGSMYKLPIEAQFNLIEEEFAAIEASTMNPRLYNFTTSNANPTKNRYINVLANEETIFPPTSLTSAPPTTGGSRLSTSGSPPSMASAPSPMKSLTGRAQKIWGVAGQRLFGTRRGGTLPRDVEGNEKFTTGCVTKKYPQWYINANVVDTSVEPVFVASQAPVQECIDDFLAVIYSCEVTLVLMLTELEEAGFVKADRYWPEDSAPADRIESFGSMCVYKDEQDPYTCDAAHELVRRSFYIRPSAASQARAHKIVMYQYVGWPDRGVPDSTESFEELLKIIQGYVMASPAPRVPAAGPESAAHSSIATNSGGDGSTSNTGSGEGSGKLTPPVFVHCSAGIGRTGTLIGAYTAVKLTEAGLLTNTSIRRIVTDMRKARFGMVQRVEQYMFLYMIVLQHMGVDARKFSARMQPRADLYNMRWMEARQKALLGARAAKR", "soluble on expression in E. coli": "not soluble"}, {"sequence": "MGSDKIHHHHHHMEHECDTLPHWLTGSPQGEAGHTPAACNSAVAAQPAYPAGTRQPEKSAHAAEASRAHDRTATGVAPTGFLTLFTEEEIGTPSPAARRAAPVISPLVRFGSAQDRIEFVRQRIRQLGFDSFSYSATRTSAHHKTMFVLTSYESRSWLTRYFRERYFELDPRVALASPTGLPFLWNTADMRADLPRAQMRSERLGGLIDMLEATGRKSGILTQMPLPEPELSASLCFNSETGNPRWMTESIVAETLMFAHMIHEFIWTHAKSVIGIAPAQQQRVTLSELQHAVLRAVVQGQRDKEIAYFLGLSPHNVDYHLRRLRQLFNVRNRVQLINVAQAYVS", "soluble on expression in E. coli": "not soluble"}, {"sequence": "MKSRFSARQQNSDNTADENKSTTTAVLLTNLGSPDEPTTSAVRRYLREFLSDTRVVEIPRLIWLLILHGIILRIRPAKSAKLYQTVWQDDGAPLISITAAQKEKMATKIKSQYGDNVIVDFAMRYGNPSIASVLQKFQQQGVDKLVVLPLYPQYAGPTTASTFDAVSKELQKWRYIPSIHFLNTYHNNPFYIQALAETVKEHVASHGKPERLVLSYHGMPELFHKWGDPYYDFCQE", "soluble on expression in E. coli": "not soluble"}, {"sequence": "MLILMDPEETGKAPEIRALKSRAVNRVDSDLGRMEAVKRLKGVEDRRVGSEVFDELTLKTLYKLANSGYLAVLNGAVSTGKEANVFKGITDTDDFVAVKIYRVATSDFKKMQYYIQGDPRFKVRTTNRRQLVQAWVNKEFRNLKRALEAGVRVPEPVTARDNVLIMEFIGKDGVPAPTMRDAPPEDPEEALETIIEYMHRLYKGARLVHGDLSFFNILNHCGEPVIIDVSQAMVLDHPLAGELLERDIENIIRDFRRIGVSVSADYIRERITGK", "soluble on expression in E. coli": "soluble"}, {"sequence": "MGSDKIHHHHHHMEPQWDDMKVFLAVARESSLSGAGRVLKMDPATVGRRVARFEAALKTSLFVKSPQGYALSAAGDRLLGHAEAAELAMRAGEEALTGPSDTLSGQIRIGAPDGCANYILPQVCAAISKDNPDLDIQVVALPRVINLSRREADMAVTVSAPTAGKLLVQKITDYHLHLAATRHYLRDNHPIEKLEHLRDHRMIGYIPDMIFDRELDYLNDLGIERVSLASNSVSVQIKMLAEGSALGVVHDFSLPSHRTLRKVLKEEFSLTRSFYLVRHQGDQRSDRLNRFAEALSAGIRAEVERLEGLT", "soluble on expression in E. coli": "not soluble"}, {"sequence": "GMSIIDLTKLEQKVATMWDSILTNSPFIHEVLDGKATKALYAIYMTETYHYTKHNAKNQALVGIMGKDLPGKYLSFCFHHAHEEAGHELMALSDIASIGFDREDVLSSKPLPATETLIAYLYWISATGNPVQRLGYSYWAENVYGYIDPVLKAIQSTLDLTPQSMKFFIAHSKIDAKHAEEVNEMLHEVCKTQEDVDSVVAVMENSLVLTARILDDVWKEYQLFQSGASDRYAFLRDNA", "soluble on expression in E. coli": "soluble"}]}]}
